Reference: patent US20200339690A1 (JOUNCE THERAPEUTICS, published 2020)

Assays:
[1] = target: T1, human LILRB2 expressed on cells (human, UniProt Q8N423 22-597); experiment: cell-based or functional assay
human LILRA1 = target: T2, human LILRA1 (human, UniProt O75019 17-489); experiment: flow cytometry, LILRA1 CHOs
T2 construct: Over-expressed on CHO-s cells; also called hLILRA1

human LILRA2 = target: T3, human LILRA2 (human, UniProt Q8N149 24-483); experiment: flow cytometry, LILRA2 CHOs
T3 construct: Over-expressed on CHO-s cells; also called hLILRA2
T3 sequence (Q8N149 24-483 S135L limits assumed): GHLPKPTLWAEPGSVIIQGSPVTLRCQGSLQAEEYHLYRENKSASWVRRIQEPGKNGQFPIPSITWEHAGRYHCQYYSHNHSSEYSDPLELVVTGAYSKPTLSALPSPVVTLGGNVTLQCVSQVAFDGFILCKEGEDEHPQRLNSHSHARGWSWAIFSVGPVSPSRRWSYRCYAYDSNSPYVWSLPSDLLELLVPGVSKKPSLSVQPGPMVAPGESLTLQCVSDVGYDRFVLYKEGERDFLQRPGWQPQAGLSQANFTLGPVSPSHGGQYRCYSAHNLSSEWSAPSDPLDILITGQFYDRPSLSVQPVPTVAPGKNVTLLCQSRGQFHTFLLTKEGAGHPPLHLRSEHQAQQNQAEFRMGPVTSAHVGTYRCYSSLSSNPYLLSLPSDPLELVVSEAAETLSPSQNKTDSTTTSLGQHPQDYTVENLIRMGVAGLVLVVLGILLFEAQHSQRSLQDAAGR

human LILRA3 = target: T4, human LILRA3 (human, UniProt Q8N6C8 24-439); experiment: flow cytometry, LILRA3 CHOs
T4 construct: Over-expressed on CHO-s cells; also called hLILRA3
T4 sequence (Q8N6C8 24-439 limits assumed): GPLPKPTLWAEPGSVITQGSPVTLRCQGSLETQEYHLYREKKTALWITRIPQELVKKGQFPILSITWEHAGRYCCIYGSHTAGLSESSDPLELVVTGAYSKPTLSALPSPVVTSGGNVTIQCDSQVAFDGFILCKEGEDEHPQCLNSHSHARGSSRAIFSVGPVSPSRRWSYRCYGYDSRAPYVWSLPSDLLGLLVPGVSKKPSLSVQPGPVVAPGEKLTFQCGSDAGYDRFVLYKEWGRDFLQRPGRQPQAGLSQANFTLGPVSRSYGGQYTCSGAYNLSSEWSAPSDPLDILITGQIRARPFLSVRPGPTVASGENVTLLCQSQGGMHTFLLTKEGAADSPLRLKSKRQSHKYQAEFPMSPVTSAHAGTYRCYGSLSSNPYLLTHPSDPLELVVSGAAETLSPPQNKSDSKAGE

human LILRA5 = target: T5, human LILRA5 (human, UniProt A6NI73 42-299); experiment: flow cytometry, LILRA5 CHOs
T5 construct: Over-expressed on CHO-s cells; also called hLILRA5
T5 sequence (A6NI73 42-299 limits assumed): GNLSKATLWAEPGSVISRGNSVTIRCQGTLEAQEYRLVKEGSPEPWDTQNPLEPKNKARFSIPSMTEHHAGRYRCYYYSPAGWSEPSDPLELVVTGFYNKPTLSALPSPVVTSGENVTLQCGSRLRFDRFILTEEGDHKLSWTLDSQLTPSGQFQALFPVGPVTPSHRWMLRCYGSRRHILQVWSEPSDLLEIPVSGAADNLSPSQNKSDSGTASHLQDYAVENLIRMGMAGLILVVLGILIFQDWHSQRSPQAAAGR

human LILRA6 = target: T6, human LILRA6 (human, UniProt Q6PI73 24-481); experiment: flow cytometry, LILRA6 CHOs
T6 construct: Over-expressed on CHO-s cells; also called hLILRA6
T6 sequence (Q6PI73 24-481 limits assumed): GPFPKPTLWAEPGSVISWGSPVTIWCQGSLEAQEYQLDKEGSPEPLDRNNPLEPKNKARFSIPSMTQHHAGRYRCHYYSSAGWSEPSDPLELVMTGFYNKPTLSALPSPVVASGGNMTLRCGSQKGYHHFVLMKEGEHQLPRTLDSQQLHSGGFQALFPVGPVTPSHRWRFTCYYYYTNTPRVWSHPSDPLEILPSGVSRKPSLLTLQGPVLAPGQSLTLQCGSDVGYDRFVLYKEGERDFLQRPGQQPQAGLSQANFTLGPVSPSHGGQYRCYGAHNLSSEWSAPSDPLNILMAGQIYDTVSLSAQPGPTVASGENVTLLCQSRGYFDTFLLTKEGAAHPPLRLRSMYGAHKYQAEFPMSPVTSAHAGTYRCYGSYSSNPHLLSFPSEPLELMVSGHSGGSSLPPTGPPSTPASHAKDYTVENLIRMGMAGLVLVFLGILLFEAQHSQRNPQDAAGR

human LILRB1 = target: T7, human LILRB1 (human, UniProt Q8NHL6 24-650); experiment: flow cytometry, LILRB1 CHOs
T7 construct: Over-expressed on CHO-s cells; also called hLILRB1
T7 sequence (Q8NHL6 24-650 limits assumed): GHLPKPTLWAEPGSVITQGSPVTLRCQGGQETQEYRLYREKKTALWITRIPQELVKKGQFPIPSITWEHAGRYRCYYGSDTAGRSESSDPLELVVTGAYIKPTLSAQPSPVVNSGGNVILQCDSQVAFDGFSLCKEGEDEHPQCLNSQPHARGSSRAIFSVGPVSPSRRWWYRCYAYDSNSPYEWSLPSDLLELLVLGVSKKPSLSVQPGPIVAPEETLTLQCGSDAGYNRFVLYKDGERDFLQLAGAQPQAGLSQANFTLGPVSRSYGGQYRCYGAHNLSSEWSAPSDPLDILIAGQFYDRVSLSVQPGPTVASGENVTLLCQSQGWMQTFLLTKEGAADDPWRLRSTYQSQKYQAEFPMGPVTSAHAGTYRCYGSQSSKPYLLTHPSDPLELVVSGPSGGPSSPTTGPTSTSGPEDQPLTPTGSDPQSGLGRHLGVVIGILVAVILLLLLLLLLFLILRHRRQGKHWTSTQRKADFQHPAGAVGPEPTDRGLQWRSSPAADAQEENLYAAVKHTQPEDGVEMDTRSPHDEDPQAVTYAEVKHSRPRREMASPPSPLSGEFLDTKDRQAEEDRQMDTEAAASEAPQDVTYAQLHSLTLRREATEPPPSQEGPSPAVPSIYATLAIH

[2] = target: T1, human LILRB2 expressed on cells; experiment: flow cytometry, LILRB2 CHOs
human LILRB3 = target: T8, human LILRB3 (human, UniProt O75022 24-631); experiment: flow cytometry, LILRB3 CHOs
T8 construct: Over-expressed on CHO-s cells; also called hLILRB3

human LILRB4 = target: T9, human LILRB4 (human, UniProt Q8NHJ6 22-448); experiment: flow cytometry, LILRB4 CHOs
T9 construct: Over-expressed on CHO-s cells; also called hLILRB4

human LILRB5 = target: T10, human LILRB5 (human, UniProt O75023 24-590); experiment: flow cytometry, LILRB5 CHOs
T10 construct: Over-expressed on CHO-s cells; also called hLILRB5
T10 sequence (O75023 24-590 P542R limits assumed): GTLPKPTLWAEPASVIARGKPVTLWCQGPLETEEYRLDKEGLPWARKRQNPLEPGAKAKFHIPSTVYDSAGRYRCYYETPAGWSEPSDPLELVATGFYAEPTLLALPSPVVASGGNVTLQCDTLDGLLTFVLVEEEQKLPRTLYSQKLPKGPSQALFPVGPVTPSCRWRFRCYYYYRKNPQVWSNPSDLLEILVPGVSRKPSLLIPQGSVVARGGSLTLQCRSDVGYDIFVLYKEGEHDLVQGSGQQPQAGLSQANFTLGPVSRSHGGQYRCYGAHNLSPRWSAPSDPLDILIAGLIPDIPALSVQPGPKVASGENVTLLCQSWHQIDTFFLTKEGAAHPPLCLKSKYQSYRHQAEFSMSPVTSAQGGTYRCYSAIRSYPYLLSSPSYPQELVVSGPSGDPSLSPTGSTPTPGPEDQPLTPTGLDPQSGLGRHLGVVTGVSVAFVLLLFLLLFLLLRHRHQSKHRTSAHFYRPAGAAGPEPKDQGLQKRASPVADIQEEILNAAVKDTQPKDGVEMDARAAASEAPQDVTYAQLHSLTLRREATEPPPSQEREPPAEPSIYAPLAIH

[3] = target: T1, human LILRB2 expressed on cells; experiment: blocking of HLA-G tetramer on LILRB2 CHOs, flow cytometry, mAb 10 ug/mL
Description: (§1) In the secondary screen, 1×10⁵ CHO-s cells over-expressing human LILRB2 were plated in 96-well round-bottom tissue culture-treated plate and washed twice with 1×DPBS (Gibco) and incubated with 10 μg/mL primary antibody (anti-LILRB2 mAbs or control) prepared in 50 μL FACS buffer (1×DPBS containing 2% HI-FBS (Sigma)+0.05% Sodium Azide). After incubation with mAbs for 30 minutes at 4° C., cells were washed twice in FACS buffer and then resuspended in 50 μL of FACS buffer containing 5 μg/mL APC-conjugated HLA-A2 or HLA-G tetramer (Fred Hutch). Cells were incubated protected from light for 30-60 minutes at 4° C. After incubation with tetramer, cells were washed in FACS buffer and re-suspended in fix buffer (1.5% paraformaldehyde diluted in 1×DPBS). Samples were analyzed using the Celesta flow cytometer analyzer (BD Biosciences). Data represent percent tetramer blocked by mAbs relative to tetramer alone, calculated according to the following equation: […]

[4] = target: T1, human LILRB2 expressed on cells; experiment: blocking of HLA-A2 tetramer on LILRB2 CHOs, flow cytometry, mAb 10 ug/mL
Description: as §1

T1 sequence (Q8N423 other isoform, or with tags, fused parts or gaps limits assumed): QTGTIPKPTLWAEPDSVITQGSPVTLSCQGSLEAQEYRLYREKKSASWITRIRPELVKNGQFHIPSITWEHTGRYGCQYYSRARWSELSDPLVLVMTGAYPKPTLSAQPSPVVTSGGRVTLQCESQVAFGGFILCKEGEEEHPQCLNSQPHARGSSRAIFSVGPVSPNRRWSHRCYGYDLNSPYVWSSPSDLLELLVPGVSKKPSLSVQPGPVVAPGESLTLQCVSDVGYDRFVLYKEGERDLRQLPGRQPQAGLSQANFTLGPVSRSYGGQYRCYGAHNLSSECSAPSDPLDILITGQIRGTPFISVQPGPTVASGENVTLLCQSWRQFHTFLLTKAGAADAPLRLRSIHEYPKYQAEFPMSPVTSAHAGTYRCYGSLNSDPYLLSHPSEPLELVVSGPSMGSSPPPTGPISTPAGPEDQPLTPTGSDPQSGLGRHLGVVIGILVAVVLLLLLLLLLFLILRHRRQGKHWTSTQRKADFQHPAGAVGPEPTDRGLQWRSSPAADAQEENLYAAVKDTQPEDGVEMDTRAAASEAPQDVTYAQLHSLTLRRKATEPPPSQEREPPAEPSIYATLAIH
T2 sequence (O75019 17-489 limits assumed): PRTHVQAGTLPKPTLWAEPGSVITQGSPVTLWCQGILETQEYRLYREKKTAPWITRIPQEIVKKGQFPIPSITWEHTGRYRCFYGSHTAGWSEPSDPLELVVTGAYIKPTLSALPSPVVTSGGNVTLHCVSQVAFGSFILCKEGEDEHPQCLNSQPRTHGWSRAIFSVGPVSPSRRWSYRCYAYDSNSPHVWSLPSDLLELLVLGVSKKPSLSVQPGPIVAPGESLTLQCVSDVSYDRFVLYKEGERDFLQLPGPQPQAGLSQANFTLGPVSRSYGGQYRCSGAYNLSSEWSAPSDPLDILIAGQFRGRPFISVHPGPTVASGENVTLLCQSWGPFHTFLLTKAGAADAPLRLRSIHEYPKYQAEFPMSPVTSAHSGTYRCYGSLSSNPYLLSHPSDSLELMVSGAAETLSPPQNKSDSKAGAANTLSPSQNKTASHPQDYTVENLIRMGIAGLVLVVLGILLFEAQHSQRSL

| CCL2 production (fold over LPS alone) [1] | IL-6 production (fold over LPS alone) [1] | IL-10 production (fold over LPS alone) [1] | TNFa production (fold over LPS alone) [1] | binding (fold over iso) (human LILRA1) | binding result (human LILRA1) | binding (fold over iso) (human LILRA2) | binding result (human LILRA2) | binding (fold over iso) (human LILRA3) | binding result (human LILRA3) | binding (fold over iso) (human LILRA5) | binding result (human LILRA5) | binding (fold over iso) (human LILRA6) | binding result (human LILRA6) | binding (fold over iso) (human LILRB1) | binding result (human LILRB1) | binding (fold over iso) [2] | binding (fold over iso) (human LILRB3) | binding result (human LILRB3) | binding (fold over iso) (human LILRB4) | Binder | other results |
| --- | --- | --- | --- | --- | --- | --- | --- | --- | --- | --- | --- | --- | --- | --- | --- | --- | --- | --- | --- | --- | --- |
| 0.95 fold over LPS alone | 1.1 fold over LPS alone | 0.97 fold over LPS alone | 1.27 fold over LPS alone | 0.89 fold over iso | no binding | 1.58 fold over iso | no binding | 1.05 fold over iso | no binding | 0.96 fold over iso | no binding | 1.23 fold over iso | no binding | 0.94 fold over iso | no binding | 30.1 fold over iso | 0.97 fold over iso | no binding | 1.02 fold over iso | J-03 (antibody, human IgG4 S228P, kappa, V domains shown, Human IgG4 chimera of murine origin) VH: QVQLQQSGAELVRPGASVTLSCKASGYKFTDYEMHWVKQTPVHGLEWIGAIDPETNGTAYNKKFKGKAILTADKSSSTAYMELRSLTSEDSAVYYCTRGDYDFSAWFAYWGQGTLVTVSA VL: DIVLTQSPASLAVSLGQRATISCRASESVDNYDISFMHWYQQKPGQPPKLLIYRASNLESGIPARFSGSGSRTDFTLTINPVETDDVATYYCQQSNKDPRTFGGGTKLEIKR | binding result (human LILRB4): no binding; binding (fold over iso) (human LILRB5): 1 fold over iso; binding result (human LILRB5): no binding; HLA-G:LILRB2 CHOs blocking (% blocked) [3]: -156 % blocked; HLA-A2:LILRB2 CHOs blocking (% blocked) [4]: -208 % blocked |
| 1 fold over LPS alone | 1.36 fold over LPS alone | 0.95 fold over LPS alone | 1.18 fold over LPS alone | 0.88 fold over iso | no binding | 1.62 fold over iso | no binding | 0.93 fold over iso | no binding | 0.74 fold over iso | no binding | 1.3 fold over iso | no binding | 0.95 fold over iso | no binding | 33.8 fold over iso | 0.9 fold over iso | no binding | 0.83 fold over iso | J-04 (antibody, human IgG4 S228P, kappa, V domains shown, Human IgG4 chimera of murine origin) VH: QVQLQQSGAELVRPGASVTLSCKASGYTFADYEIHWVKQTPVHGLEWIGAIDPETGGTAYNQKFKGKAILTADKSSSTAYMELRSLTSEDSAVYYCTRYYDYDDAMDYWGQGTSVTVSS VL: QIVLTQSPAIMSASPGEKVTMTCSASSSVSFMHWYQQKSGTSPKRWIYGTSKLASGVPARFSGSGSGTSYSLTISSMEAEDAATYYCQQWNGNPFTFGSGTKLETKR | binding result (human LILRB4): no binding; binding (fold over iso) (human LILRB5): 1.08 fold over iso; binding result (human LILRB5): no binding; HLA-G:LILRB2 CHOs blocking (% blocked) [3]: -255 % blocked; HLA-A2:LILRB2 CHOs blocking (% blocked) [4]: -319 % blocked |
